Assay results reported in US10646600B2, “HER2 polypeptides useful for imaging and monitoring tumors and cancers” (GE HEALTHCARE LIMITED, priority 2013, dated 2020).
Read-outs that look alike come from different tables or passages of the source. Each block holds one substance with its values, some of them ahead of it.

Experiments:
[1] = biological target: T1, human HER2 (Homo sapiens, UniProt P04626); assay: Surface Plasmon Resonance, human HER2-ECD-Fc; type: binding
T1 construct: Human, rhesus and rat HER2-ECD-Fc (SINO Biological, Beijing, China, Cat. Nr: 10004-H02H, 90020-K02H, and 80079-R02H); Fc (C); purchased SINO Biological 10004-H02H
Description: (§1) To characterize the affinity of [^19F]GE-226[SEQ ID NO 1] to HER2 protein, Surface Plasmon Resonance studies were conducted. Human, rhesus and rat HER2-ECD-Fc (SINO Biological, Beijing, China, Cat. Nr: 10004-H02H, 90020-K02H, and 80079-R02H), as well as human HER2-ECD-Fc-6×His (R&D Systems, Minneapolis, Minn., Cat. Nr: 1129-ER) and p95HER2 ECD-Fc-6×His (Syngene, Cambridge, United Kingdom) were diluted with 50 mM sodium acetate pH 4.5 (Biacore (GE Healthcare, Buckinghamshire, UK) coupling buffer) to a final concentration of 10 μg/mL. Antigen coupling to Biacore sensor chip CMS (Cat. Nr: BR-1005-30) was done according to amine coupling protocol from the instrument manual (Syngene). HBS-EP buffer (10 mM HEPES pH 7.4, 150 mM NaCl, 3 mM EDTA and 0.005% surfactant P20; GE Healthcare, Little Chalfont, United Kingdom, Cat. Nr: BR-1006-69) was used as running buffer and as solvent for the substances. The affinity studies were performed using a Biacore T100 (GE Healthcare). [^19F]GE-226 was diluted in HBS-EP buffer to 50 nM, 25 nM, 12.5 nM, 6.25 nM, 3.125 nM, 1.56 nM, 0.78 nM, 0.39 nM, 0.195 nM, 0.097 nM, 0.049 nM and 0 nM. The flow cells of the first chip comprised of blank, human HER2-ECD-Fc-6×His, p95HER2-ECD-Fc-6×His batch I and p95HER2-ECD-Fc-6×His batch II. The flow cells on the second chip contained blank, human HER2-ECD-Fc, rhesus HER2-ECD-Fc and rat HER2 ECD-Fc. The immobilization of the proteins was validated with protein-A (Sigma-Aldrich, St. Louis, Mo., Cat. Nr: P6031) and anti-human IgG antibody (Perkin Elmer, Waltham, Mass., Cat. Nr: NEF803001EA). [^19F]GE-226[SEQ ID NO 1] was pumped in duplicate over cells in randomized order for 60 sec at 50 μL/min flow rate followed by 120 sec of HBS-EP to monitor dissociation. This was followed by regeneration of the chip with 50 mM sodium hydroxide for 30 sec at 30 μL/min flow rate followed by 60 sec run of HBS-EP to stabilize the surface. Kinetic calculations were performed using Langmuir 1:1 binding model and simultaneous calculation of association and dissociation phase.

[2] = tested on: MCF7-HER2 xenografts; assay: PET-CT imaging and kinetic modeling, MCF7-HER2 xenografts; type: in vivo, mice
Source text: (§2) Mice were anesthetized through isoflurane inhalation and scanned on a dedicated small animal PET-CT scanner (Siemens Multimodality Inveon, Erlangen, Germany). Low dose CT scans were first acquired (80 kVp, 0.5 mA, 220 degree rotation, 600 ms per degree exposure time, 80 μm reconstruction pixel size) for PET attenuation correction and to obtain an anatomical reference. PET images were acquired following a bolus i.v. injection of approximately 3.7 MBq [^18F]GE-226 in the tail vein. Dynamic emission scans were acquired in list mode format over 60 minutes. The acquired data were sorted into 0.5-mm sinogram bins and 19 time frames for image reconstruction by filtered back projection (4×15 seconds and 4×60 seconds followed by 11×300 seconds). The Siemens Inveon Research Workplace software was used for visualization of radiotracer uptake. 30 to 60-minute cumulative images of the dynamic data were employed to define 3-dimensional (3D) regions of interest (ROI). […] The count densities were averaged for all ROIs at each time point to obtain time versus radioactivity curves (TAC). Tumor TACs were normalized to injected dose measured by a VDC-304 dose calibrator (Veenstra Instruments, Joure, Netherlands) and normalized uptake was expressed as percentage injected dose per mL tissue (NUV; % ID/mL). […]

[3] = tested on: MDA-MB-361 xenografts; assay: PET-CT imaging and kinetic modeling, MDA-MB-361 xenografts; type: in vivo, mice
Source text: as §2

[4] = tested on: MCF7-p95HER2; assay: Biodistribution, MCF7-p95HER2 tumor; type: in vivo, mice; conditions: 60 min
Source text: (§3) Mice were sacrificed at different time points by exsanguination.

[5] = tested on: MDA-MB-361; assay: Biodistribution, MDA-MB-361 tumor; type: in vivo, mice; conditions: 60 min
Source text: as §3

[6] = tested on: SKOV-3; assay: Biodistribution, SKOV-3 tumor; type: in vivo, mice
Source text: as §3

[7] = Metabolic stability, plasma radio-HPLC; type: in vivo, mice; conditions: 3.7 MBq i.v., 10, 30 and 60 minutes post injection
Description: At 10, 30 and 60 minute post injection, mice were exsanguinated via cardiac puncture and blood removed for centrifugation. Plasma was obtained and kept on ice for analysis of radioactive metabolites by HPLC.

[8] = tested on: rhesus HER2; assay: Surface Plasmon Resonance, rhesus HER2-ECD-Fc; type: binding
Description: as §1

[9] = two-tissue irreversible compartmental model

Kd ([1]; human HER2, text, read-out: KD): 0.076 nM
Substance: [^18F]GE-226: HER2-binding 18F-radiolabelled Affibody molecule ZHER2:2891
NUV60 ([2]; PET, 60 minutes): 10.9±1.5 % ID/mL
Ki (net irreversible uptake rate) [2, 9]: 0.015±0.0035 mL/cm^3/min
NUV60 ([3]; PET, 60 minutes): 18.2±3.4 % ID/mL
Ki (net irreversible uptake rate) [3, 9]: 0.025±0.0052 mL/cm^3/min
Tissue uptake, MCF7-p95HER2 [4]: 6.55 ± 0.13 % ID/g tissue
Tissue uptake, MDA-MB-361 [5]: 17.00 ± 2.98 % ID/g tissue
Tissue uptake, SKOV-3 ([6]; 60 min): 17.35 ± 0.83 % ID/g tissue
tumor/muscle ratio ([6]; SKOV-3 tumor, 1 h): ~60
metabolic stability [7]: metabolically stable
metabolic stability ([7]; listed as tracer): stable in vivo

Off-rate koff ([1]; Human HER2): 0.00131 s⁻¹
Rmax ([1]; Human HER2): 133.5
On-rate kon ([1]; Human HER2, Langmuir 1:1 binding model): 1.73e+07 M⁻¹ s⁻¹
Chi-Square χ^2 ([1]; Human HER2, fit statistic): 0.607
U-value ([1]; Human HER2, fit statistic): 3
Kd ([1]; Human HER2, read-out: Affinity KD): 0.0758 nM
Kd ([1]; human HER2, text, read-out: KD): 0.076 nM
binding to human HER2 (words) ([1]; listed as GE-226): binds with high affinity
binding to human HER2 (words) ([1]; listed as [^19F]-GE-226): high affinity binding
Kd ([8]; Rhesus HER2, read-out: Affinity KD): 0.0667 nM
binding to rhesus HER2 (words) ([8]; listed as GE-226): binds with high affinity
binding to rhesus HER2 (words) ([8]; listed as [^19F]-GE-226): high affinity binding
Kd ([8]; rhesus HER2, text, read-out: KD): 0.067 nM
Substance: [^19F]GE-226: cold unlabeled non-radioactive 19F analogue of the tracer, used for SPR and blocking
Off-rate koff ([8]; Rhesus HER2): 0.000425 s⁻¹
On-rate kon ([8]; Rhesus HER2, Langmuir 1:1 binding model): 6.37e+06 M⁻¹ s⁻¹
